Data: article doi:10.1101/2025.03.17.643777, “Closed State Structure of the Pore Revealed by Uncoupled Shaker K^+ Channel” (bioRxiv, 2025)

Molecular target: the molecule itself
Experiment: cryo-EM structure; single-particle cryo-EM of the purified channel in 0.02% GDN, 150 mM KCl, 50 mM TRIS pH 7.5; C4 symmetry imposed

B1: Shaker-IR-I384R (natural protein, UniProt P08510 1-655, looked up)
chain: MAAVALREQQLQRNSLDGYGSLPKLSSQDEEGGAGHGFGGGPQHFEPIPHDHDFCERVVINVSGLRFETQLRTLNQFPDTLLGDPARRLRYFDPLRNEYFFDRSRPSFDAILYYYQSGGRLRRPVNVPLDVFSEEIKFYELGDQAINKFREDEGFIKEEERPLPDNEKQRKVWLLFEYPESSQAARVVAIISVFVILLSIVIFCLETLPEFKHYKVFNTTTNGTKIEEDEVPDITDPFFLIETLCIIWFTFELTVRFLACPNKLNFCRDVMNVIDIIAIIPYFITLATVVAEEEDTLNLPKAPVSPQDKSSNQAMSLAILRVIRLVRVFRIFKLSRHSKGLQRLGRTLKASMRELGLLIFFLFIGVVLFSSAVYFAEAGSENSFFKSIPDAFWWAVVTMTTVGYGDMTPVGVWGKIVGSLCAIAGVLTIALPVPVIVSNFNYFYHRETDQEEMQSQNFNHVTSCPYLPGTLGQHMKKSSLSESSSDMMDLDDGVESTPGLTETHPGRSAVAPFLGAQQQQQQPVASSLSMSIDKQLQHPLQQLTQTQLYQQQQQQQQQQQNGFKQQQQQTQQQLQQQQSHTINASAAAATSGSGSSGLTMRHNNALAVSIETDV
notes: built on the Shaker-IR model PDB 7SIP; The C-terminal HRV 3C site was cut to release the channel from the beads, so residues of the site may remain; also called uncoupled channel; completely uncoupled I384R mutant; not shown: eGFP, C-terminal, cleaved; 8xHis, C-terminal, cleaved
With B1 the “stoichiometry N” value was 4.
